Measurements: US20220267421A1 (INVOX PHARMA, published 2022)

T1: cynomolgus MSLN-His-Avi (cynomolgus, single biotin (BirA) in the biotinylated form)
T1 construct: Monomeric, made in HEK293-6E; also called cMSLN-His-Avi; cyno MSLN-His-Avi
T1 chain: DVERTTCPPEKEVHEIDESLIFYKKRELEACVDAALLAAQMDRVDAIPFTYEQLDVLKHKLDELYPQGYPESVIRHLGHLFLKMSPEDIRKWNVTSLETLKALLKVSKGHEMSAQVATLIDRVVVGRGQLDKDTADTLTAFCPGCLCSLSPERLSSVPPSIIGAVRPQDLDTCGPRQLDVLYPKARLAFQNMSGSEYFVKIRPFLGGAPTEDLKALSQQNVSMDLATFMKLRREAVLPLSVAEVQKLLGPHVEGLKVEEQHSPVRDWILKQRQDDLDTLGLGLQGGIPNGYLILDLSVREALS


Key:
[1] = biological target: T2, human MSLN-His-Avi (human, UniProt Q13421 296-598, single biotin (BirA) in the biotinylated form); assay: SPR (Biacore), mAb^2 captured on Protein G, MSLN in solution injected
T2 construct: Monomeric, made in HEK293-6E; Used both immobilised and in solution; also called hMSLN-His-Avi; biotinylated hMSLN-His-Avi
T2 sequence (Q13421 other isoform, or with tags, fused parts or gaps): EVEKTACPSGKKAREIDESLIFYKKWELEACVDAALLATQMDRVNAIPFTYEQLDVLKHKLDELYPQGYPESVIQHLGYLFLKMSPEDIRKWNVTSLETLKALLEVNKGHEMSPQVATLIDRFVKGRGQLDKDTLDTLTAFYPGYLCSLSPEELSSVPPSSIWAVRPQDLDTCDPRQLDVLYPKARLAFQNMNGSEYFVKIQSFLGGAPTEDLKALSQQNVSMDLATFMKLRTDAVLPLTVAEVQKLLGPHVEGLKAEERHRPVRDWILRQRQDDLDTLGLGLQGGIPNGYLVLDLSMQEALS

[2] = biological target: T1, cynomolgus MSLN-His-Avi; assay: as above
[3] = biological target: T2, human MSLN-His-Avi; assay: ratio of the two SPR KD
Procedure, shortened: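 mAb² clones were tested on two SPR set-ups. In the first, human MSLN-His-Avi was amine-coupled to CM5 (~200 RU) and ~50 nM antibody was injected. In the second, clones were captured on Protein G (~100 RU) and human or cyno MSLN (1000-0.051 nM, 3-fold) was flowed in HBS-EP with 900 mM […] for 5 min association/5 min dissociation. The value is the ratio of the two KD.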

[4] = biological target: T1, cynomolgus MSLN-His-Avi; assay: SPR (see Table 4)
[5] = biological target: T3, cell surface human mesothelin (MSLN) (human, UniProt Q13421 296-598); assay: flow cytometry, NCI-H226 cells
T3 construct: whole, on cells; also called cell surface MSLN
T3 sequence (Q13421 other isoform, or with tags, fused parts or gaps limits assumed): as the sequence (Q13421 other isoform, or with tags, fused parts or gaps) above
Experimental: (§1) Cells were centrifuged at 1200 rpm for 3 min and resuspended in ice cold FACS buffer made up of DPBS (Life Technologies, 14190169) and 1% BSA (Sigma-Aldrich, A7906) at 2×10⁶ cells/ml and 50 μl per well was seeded in a 96-well V-bottom plate (Costar, 3894). All mAbs tested were diluted in FACS buffer in 120 μl at a concentration range of 0.01-200 nM (4-fold dilutions). The NCI-H226 cells were then centrifuged, supernatant removed and cells resuspended in 100 μl of each mAb dilution and incubated at 4° C. for 45 min. Cells were washed twice by centrifugation with 150 μl FACS buffer, resuspended in 100 μl containing goat anti-human IgG (γ-chain specific) F(ab′)2 fragment-R-Phycoerythrin antibody (Sigma, P8047) diluted 1:1000 in FACS buffer and incubated at 4° C. for 45 min. The cells were washed once with 150 μl FACS buffer and then with 150 μl DPBS, resuspended in 150 μl DPBS containing DAPI (Biotium, 40043) at 1:10.000 and read on the BDCantoll or iQue (Intellicyt). Data was analysed using FlowJo v10 to determine the signal geometric mean for PE for live cells in each well.
(§2) Cell binding assays using OVCAR-3 cells were performed similarly to the assays described in section 2.4. The effect of the presence of soluble MSLN was tested by pre-incubating the antibodies in the presence or absence of soluble MSLN before mixing with cells and determining if the pre-incubation affected binding to MSLN on the cell surface. […] 60 μl from each well was then added to either FACS buffer alone or to FACS buffer containing 60 μl of 40 nM recombinant hMSLN (R&D systems, 3265-MS-050) (to give a final concentration of 20 nM hMSLN) and pre-incubated at room temperature for 1 hour before 100 μl was added to the cells. Bound antibody was detected using goat anti-human anti-Fcγ Alexa-Fluor 488 (Jackson Immunoresearch, 109-546-098).
(§3) The method used was exactly as described in section 3.1.4.

[6] = biological target: T3, cell surface human mesothelin (MSLN); assay: flow cytometry, NCI-H226 cells + 20 nM soluble MSLN
Experimental: as §1, §2, §3

[7] = biological target: T2, human MSLN-His-Avi; assay: SPR (Biacore), MSLN immobilised, mAb^2 injected
Procedure, shortened: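 Human MSLN-His-Avi amine-coupled to CM5 chip at about 200 RU, blank reference cell subtracted. Anti-MSLN mAb² (supernatant or purified) at about 50 nM in HBS-EP+ injected 2.5 min at 30 μl/min, 2.5 min dissociation; 10 mM glycine pH 1.5 regeneration.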

[8] = biological target: T1, cynomolgus MSLN-His-Avi; assay: SPR steady-state analysis, cMSLN-His-Avi coated at about 50 RU
Experimental: The association time was 1000 sec to steady state and the dissociation time was 30 sec. Running buffer was HBS-EP (GE Healthcare BR100188). Flow cells were regenerated by injecting Glycine-HCl pH1.5 at a flow rate of 30 μl/min for 30 seconds. Data were analysed by double referencing against a flow cell which was intentionally left blank (no antigen coating). Steady state affinity model was used to analyse kinetic data using the BiaEvaluation software version 3.2.

Row | Kd [1] [nM] | Kd [2] [nM] | Ratio of KD in solution/immobilised for human MSLN-His-Avi [3] | fold lower affinity for cyno MSLN than for human MSLN [4] [fold] | EC50 [5] [nM] | Emax (MFI) [5] [MFI] | EC50 [6] [nM] | Emax (MFI) [6] [MFI] | Kd [7] [nM] | fold difference of binding to cyno MSLN against human MSLN [8] [fold] | Binder
1 | 46.5 | 240 | 119 | ~5 | 1.47 | 981000 | 5.04 | 1.02e+06 | 0.39 |  | FS22-053-008-AA/FS28-024 mAb^2 (bispecific antibody, human IgG1, kappa, L234A L235A, V domains shown, also called FS28-024 (in FS22-053-008-AA mAb^2 format); FS28-024 (in CD137 mAb2 format)) VH: EVQLLESGGGLVQPGGSLRLSCAASGFTLSYSSMSWVRQAPGKGLEWVSFITPSTGYTHYADSVKGRFTISRDNSKNTLYLQMNSLRAEDTAVYYCARRALTFDYWGQGTLVTVSS VL: EIVLTQSPGTLSLSPGERATLSCRASQSVSSSYLAWYQQKPGQAPRLLIYGASSRATGIPDRFSGSGSGTDFTLTISRLEPEDFAVYYCQQASSYPLTFGQGTKVEIKR
2 |  |  |  |  |  |  |  |  |  | ≤ 3 | FS22-172-003-AA/FS28-256-271 mAb^2 (bispecific antibody, human IgG1, kappa, L234A L235A) heavy: EVQLLESGGGLVQPGGSLRLSCAASGFTFTHTYMSWVRQAPGKGLEWVSAISPTYSTTNYADSVKGRFTISRDNNKNTLYLQMNSLRAEDTAVYYCARYNAYHAALDYWGQGTLVTVSSASTKGPSVFPLAPSSKSTSGGTAALGCLVKDYFPEPVTVSWNSGALTSGVHTFPAVLQSSGLYSLSSVVTVPSSSLGTQTYICNVNHKPSNTKVDKKVEPKSCDKTHTCPPCPAPEAAGGPSVFLFPPKPKDTLMISRTPEVTCVVVDVSHEDPEVKFNWYVDGVEVHNAKTKPREEQYNSTYRVVSVLTVLHQDWLNGKEYKCKVSNKALPAPIEKTISKAKGQPREPQVYTLPPSRDELPYIIPPYNQVSLTCLVKGFYPSDIAVEWESNGQPENNYKTTPPVLDSDGSFFLYSKLTVGADRWLEGNVFSCSVMHEALHNHYTQKSLSLSPG light: EIVLTQSPGTLSLSPGERATLSCRASQSVSSSYLAWYQQKPGQAPRLLIYGASSRATGIPDRFSGSGSGTDFTLTISRLEPEDFAVYYCQQTVPYPYTFGQGTKVEIKRTVAAPSVFIFPPSDEQLKSGTASVVCLLNNFYPREAKVQWKVDNALQSGNSQESVTEQDSKDSTYSLSSTLTLSKADYEKHKVYACEVTHQGLSSPVTKSFNRGEC
